Results reported in US20180092966A1 (CSL, published 2018).
Numbering of substitutions follows the chain as printed. Numbers in names are those of the source.

B1: Factor VIII SingleChain T1654C mutant (other)
chain: ATRRYYLGAVELSWDYMQSDLGELPVDARFPPRVPKSFPFNTSVVYKKTLFVEFTDHLFNIAKPRPPWMGLLGPTIQAEVYDTVVITLKNMASHPVSLHAVGVSYWKASEGAEYDDQTSQREKEDDKVFPGGSHTYVWQVLKENGPMASDPLCLTYSYLSHVDLVKDLNSGLIGALLVCREGSLAKEKTQTLHKFILLFAVFDEGKSWHSETKNSLMQDRDAASARAWPKMHTVNGYVNRSLPGLIGCHRKSVYWHVIGMGTTPEVHSIFLEGHTFLVRNHRQASLEISPITFLTAQTLLMDLGQFLLFCHISSHQHDGMEAYVKVDSCPEEPQLRMKNNEEAEDYDDDLTDSEMDVVRFDDDNSPSFIQIRSVAKKHPKTWVHYIAAEEEDWDYAPLVLAPDDRSYKSQYLNNGPQRIGRKYKKVRFMAYTDETFKTREAIQHESGILGPLLYGEVGDTLLIIFKNQASRPYNIYPHGITDVRPLYSRRLPKGVKHLKDFPILPGEIFKYKWTVTVEDGPTKSDPRCLTRYYSSFVNMERDLASGLIGPLLICYKESVDQRGNQIMSDKRNVILFSVFDENRSWYLTENIQRFLPNPAGVQLEDPEFQASNIMHSINGYVFDSLQLSVCLHEVAYWYILSIGAQTDFLSVFFSGYTFKHKMVYEDTLTLFPFSGETVFMSMENPGLWILGCHNSDFRNRGMTALLKVSSCDKNTGDYYEDSYEDISAYLLSKNNAIEPRSFSQNSRHRSTRQKQFNATTIPENTCLQSDQEEIDYDDTISVEMKKEDFDIYDEDENQSPRSFQKKTRHYFIAAVERLWDYGMSSSPHVLRNRAQSGSVPQFKKVVFQEFTDGSFTQPLYRGELNEHLGLLGPYIRAEVEDNIMVTFRNQASRPYSFYSSLISYEEDQRQGAEPRKNFVKPNETKTYFWKVQHHMAPTKDEFDCKAWAYFSDVDLEKDVHSGLIGPLLVCHTNTLNPAHGRQVTVQEFALFFTIFDETKSWYFTENMERNCRAPCNIQMEDPTFKENYRFHAINGYIMDTLPGLVMAQDQRIRWYLLSMGSNENIHSIHFSGHVFTVRKKEEYKMALYNLYPGVFETVEMLPSKAGIWRVECLIGEHLHAGMSTLFLVYSNKCQTPLGMASGHIRDFQITASGQYGQWAPKLARLHYSGSINAWSTKEPFSWIKVDLLAPMIIHGIKTQGARQKFSSLYISQFIIMYSLDGKKWQTYRGNSTGTLMVFFGNVDSSGIKHNIFNPPIIARYIRLHPTHYSIRSTLRMELMGCDLNSCSMPLGMESKAISDAQITASSYFTNMFATWSPSKARLHLQGRSNAWRPQVNNPKEWLQVDFQKTMKVTGVTTQGVKSLLTSMYVKEFLISSSQDGHQWTLFFQNGKVKVFQGNQDSFTPVVNSLDPPLLTRYLRIHPQSWVHQIALRMEVLGCEAQDLY
notes: Single-chain FVIII with partial B-domain deletion (per WO 2004/067566); also called FVIII-SC T1654C; Cys residue at FVIII aa position 1654
B2: Factor VIII SingleChain I1679C mutant (other)
chain: B1 chain with C766T, I791C
notes: Single-chain FVIII with partial B-domain deletion; also called FVIII-SC I1679C mutant; Cys residue at FVIII aa position 1679
B3: Factor VIII SingleChain Q1686C mutant (other)
chain: B1 chain with C766T, Q798C
notes: Single-chain FVIII with partial B-domain deletion; also called FVIII-SC Q1686C; Cys residue at FVIII aa position 1686
B4: Factor VIII SingleChain Q1656C mutant (other)
chain: B1 chain with C766T, Q768C
notes: Single-chain FVIII with partial B-domain deletion; also called FVIII-SC Q1656C; Cys residue at FVIII aa position 1656
B5: Factor VIII SingleChain S1687C mutant (other)
chain: B1 chain with C766T, S799C
notes: Single-chain FVIII with partial B-domain deletion; also called FVIII-SC S1687C; Cys residue at FVIII aa position 1687
B6: Factor VIII SingleChain E1684C mutant (other)
chain: B1 chain with C766T, E796C
notes: Single-chain FVIII with partial B-domain deletion; also called FVIII-SC E1684C; Cys residue at FVIII aa position 1684
B7: Factor VIII SingleChain D1681C mutant (other)
chain: B1 chain with C766T, D793C
notes: Single-chain FVIII with partial B-domain deletion; also called FVIII-SC D1681C; Cys residue at FVIII aa position 1681
B8: Factor VIII SingleChain F1677C mutant (other)
chain: B1 chain with C766T, F789C
notes: Single-chain FVIII with partial B-domain deletion; also called FVIII-SC F1677C; Cys residue at FVIII aa position 1677
B9: Factor VIII SingleChain E1682C mutant (other)
chain: B1 chain with C766T, E794C
notes: Single-chain FVIII with partial B-domain deletion; also called FVIII-SC E1682C; Cys residue at FVIII aa position 1682
B10: Factor VIII SingleChain D1683C mutant (other)
chain: B1 chain with C766T, D795C
notes: Single-chain FVIII with partial B-domain deletion; also called FVIII-SC D1683C; Cys residue at FVIII aa position 1683

Target: T1, VWF-FP P1079C mutant (albumin-fused von Willebrand Factor) (human)
T1 construct: also called VWF-FP mutant P1079C; Cys residue at VWF aa position 1079; not shown: linker between VWF and albumin, made in analogy to WO 2009/156137
Assay: covalent-FVIII ELISA over FVIII antigen ELISA

T1 sequence (chain, as listed by the source P1079C P1079C): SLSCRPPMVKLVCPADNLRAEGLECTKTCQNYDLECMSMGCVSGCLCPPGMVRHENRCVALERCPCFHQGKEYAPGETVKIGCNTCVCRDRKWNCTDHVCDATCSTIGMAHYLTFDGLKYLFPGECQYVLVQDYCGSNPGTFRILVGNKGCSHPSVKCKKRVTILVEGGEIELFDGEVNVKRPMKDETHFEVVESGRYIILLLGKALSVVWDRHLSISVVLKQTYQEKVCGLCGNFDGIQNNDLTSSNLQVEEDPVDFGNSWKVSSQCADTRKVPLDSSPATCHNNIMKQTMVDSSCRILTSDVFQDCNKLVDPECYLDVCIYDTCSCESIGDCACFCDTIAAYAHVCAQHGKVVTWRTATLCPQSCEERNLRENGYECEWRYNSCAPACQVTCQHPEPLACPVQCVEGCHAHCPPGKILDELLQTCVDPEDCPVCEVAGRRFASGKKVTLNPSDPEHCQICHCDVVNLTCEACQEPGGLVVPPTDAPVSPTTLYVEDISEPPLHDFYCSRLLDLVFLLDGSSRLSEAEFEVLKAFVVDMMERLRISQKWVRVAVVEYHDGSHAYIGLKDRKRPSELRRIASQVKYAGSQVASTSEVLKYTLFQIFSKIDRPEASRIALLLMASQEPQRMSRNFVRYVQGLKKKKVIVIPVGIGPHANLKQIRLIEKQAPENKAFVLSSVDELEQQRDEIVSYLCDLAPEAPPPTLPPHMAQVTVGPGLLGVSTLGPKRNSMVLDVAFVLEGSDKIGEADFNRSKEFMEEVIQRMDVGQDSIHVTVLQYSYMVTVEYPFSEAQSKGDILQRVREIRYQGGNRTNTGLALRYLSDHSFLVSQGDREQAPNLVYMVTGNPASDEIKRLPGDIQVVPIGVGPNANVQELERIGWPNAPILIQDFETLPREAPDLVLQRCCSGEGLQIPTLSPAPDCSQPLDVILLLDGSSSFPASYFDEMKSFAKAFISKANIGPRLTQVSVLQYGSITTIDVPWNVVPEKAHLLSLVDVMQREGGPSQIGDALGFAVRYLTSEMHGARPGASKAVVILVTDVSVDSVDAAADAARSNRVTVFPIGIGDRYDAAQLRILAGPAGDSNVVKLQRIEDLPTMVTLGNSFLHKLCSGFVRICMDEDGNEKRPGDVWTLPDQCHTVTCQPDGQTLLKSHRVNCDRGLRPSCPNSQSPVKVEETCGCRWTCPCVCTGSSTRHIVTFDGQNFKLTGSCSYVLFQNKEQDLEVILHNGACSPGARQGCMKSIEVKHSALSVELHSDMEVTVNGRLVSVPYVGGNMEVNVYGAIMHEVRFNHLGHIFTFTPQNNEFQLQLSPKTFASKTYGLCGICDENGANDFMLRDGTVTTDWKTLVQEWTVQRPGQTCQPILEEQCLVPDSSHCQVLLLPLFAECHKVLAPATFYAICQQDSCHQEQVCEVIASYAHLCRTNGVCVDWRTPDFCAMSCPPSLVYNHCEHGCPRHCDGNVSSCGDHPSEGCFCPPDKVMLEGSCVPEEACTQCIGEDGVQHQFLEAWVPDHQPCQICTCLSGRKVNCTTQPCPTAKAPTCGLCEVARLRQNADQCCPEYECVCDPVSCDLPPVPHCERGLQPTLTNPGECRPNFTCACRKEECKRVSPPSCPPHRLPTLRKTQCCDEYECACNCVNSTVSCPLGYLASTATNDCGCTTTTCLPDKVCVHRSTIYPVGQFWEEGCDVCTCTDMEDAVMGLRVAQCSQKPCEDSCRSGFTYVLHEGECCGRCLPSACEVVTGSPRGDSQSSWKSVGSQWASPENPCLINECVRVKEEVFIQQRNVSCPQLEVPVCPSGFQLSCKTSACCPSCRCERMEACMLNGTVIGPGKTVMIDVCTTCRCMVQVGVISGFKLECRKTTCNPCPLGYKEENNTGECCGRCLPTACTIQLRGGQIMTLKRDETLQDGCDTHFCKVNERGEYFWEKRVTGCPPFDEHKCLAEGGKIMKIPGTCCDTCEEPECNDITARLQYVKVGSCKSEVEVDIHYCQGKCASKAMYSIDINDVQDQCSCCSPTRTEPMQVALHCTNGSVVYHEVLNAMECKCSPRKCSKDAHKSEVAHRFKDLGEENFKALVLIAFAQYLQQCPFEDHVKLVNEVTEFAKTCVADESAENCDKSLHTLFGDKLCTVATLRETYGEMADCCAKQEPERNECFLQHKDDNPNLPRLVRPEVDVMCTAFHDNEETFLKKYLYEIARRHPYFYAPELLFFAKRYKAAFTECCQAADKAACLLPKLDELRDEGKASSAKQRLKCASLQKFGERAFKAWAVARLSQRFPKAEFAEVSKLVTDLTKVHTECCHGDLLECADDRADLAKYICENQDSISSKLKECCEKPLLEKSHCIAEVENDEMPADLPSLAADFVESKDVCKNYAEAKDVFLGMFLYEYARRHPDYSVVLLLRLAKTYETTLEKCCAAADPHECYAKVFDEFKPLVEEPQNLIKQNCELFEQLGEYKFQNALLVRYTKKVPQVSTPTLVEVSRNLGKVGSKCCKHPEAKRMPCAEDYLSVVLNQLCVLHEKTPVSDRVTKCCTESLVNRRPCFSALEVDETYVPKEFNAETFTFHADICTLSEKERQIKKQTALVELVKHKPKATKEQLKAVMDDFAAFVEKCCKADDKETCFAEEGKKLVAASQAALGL

| Binder | ratio covalent FVIII/Total FVIII antigen |
| --- | --- |
| B1 | 0.97 |
| B2 | 1.14 |

Target: T2, VWF-FP N1134C mutant (albumin-fused von Willebrand Factor) (human)
T2 construct: Stably expressed in CHO cells with furin co-transfected; also called VWF-FP mutant N1134C; Cys residue at VWF aa position 1134; not shown: linker between VWF and albumin, made in analogy to WO 2009/156137
Assay: covalent-FVIII ELISA over FVIII antigen ELISA

T2 sequence (chain, as listed by the source N1134C N1134C): as the sequence (chain, as listed by the source P1079C P1079C) above, with C316P, N371C counted along it

| Binder | ratio covalent FVIII/Total FVIII antigen |
| --- | --- |
| B1 | 0.85 |
| B3 | 5.43 |
| B4 | 1 |
| B5 | 2.05 |
| B6 | 3.15 |

Target: T3, VWF-FP K1116C mutant (albumin-fused von Willebrand Factor) (human)
T3 construct: Stably expressed in CHO cells with furin co-transfected; also called VWF-FP mutant K1116C; Cys residue at VWF aa position 1116; not shown: linker between VWF and albumin, made in analogy to WO 2009/156137
Assay: covalent-FVIII ELISA over FVIII antigen ELISA

T3 sequence (chain, as listed by the source K1116C K1116C): as the sequence (chain, as listed by the source P1079C P1079C) above, with C316P, K353C counted along it

| Binder | ratio covalent FVIII/Total FVIII antigen |
| --- | --- |
| B3 | 5.24 |
| B7 | 2.23 |
| B8 | 0.79 |
| B9 | 1.23 |
| B2 | 0.85 |
| B6 | 1.53 |
| B10 | 1.76 |

Target: T4, VWF-FP R768C mutant (albumin-fused von Willebrand Factor) (human)
T4 construct: Stably expressed in CHO cells with furin co-transfected; also called VWF-FP mutant R768C; Cys residue at VWF aa position 768; not shown: linker between VWF and albumin, made in analogy to WO 2009/156137
Assay: covalent-FVIII ELISA over FVIII antigen ELISA

T4 sequence (chain, as listed by the source R768C R768C): as the sequence (chain, as listed by the source P1079C P1079C) above, with R5C, C316P counted along it

| Binder | ratio covalent FVIII/Total FVIII antigen |
| --- | --- |
| B3 | 0.51 |
| B7 | 1.55 |
| B9 | 2.23 |
| B5 | 0.49 |
| B6 | 0.69 |
| B10 | 3.07 |

Target: T5, VWF-FP E1015C mutant (albumin-fused von Willebrand Factor) (human)
T5 construct: Stably expressed in CHO cells with furin co-transfected; also called VWF-FP mutant E1015C; Cys residue at VWF aa position 1015; not shown: linker between VWF and albumin, made in analogy to WO 2009/156137
Assay: covalent-FVIII ELISA over FVIII antigen ELISA

T5 sequence (chain, as listed by the source E1015C E1015C): as the sequence (chain, as listed by the source P1079C P1079C) above, with E252C, C316P counted along it

| Binder | ratio covalent FVIII/Total FVIII antigen |
| --- | --- |
| B3 | 0.64 |

Target: T1, VWF-FP P1079C mutant (albumin-fused von …)
Assay: covalent-FVIII ELISA over FVIII activity assay

| Binder | ratio covalent FVIII/Total FVIII activity |
| --- | --- |
| B1 | 1.59 |
| B2 | 1.26 |

Target: T2, VWF-FP N1134C mutant (albumin-fused von …)
Assay: covalent-FVIII ELISA over FVIII activity assay

| Binder | ratio covalent FVIII/Total FVIII activity |
| --- | --- |
| B1 | 1.14 |
| B3 | 0.76 |
| B4 | 0.44 |
| B5 | 1.05 |
| B6 | 0.88 |

Target: T3, VWF-FP K1116C mutant (albumin-fused von …)
Assay: covalent-FVIII ELISA over FVIII activity assay

| Binder | ratio covalent FVIII/Total FVIII activity |
| --- | --- |
| B3 | 0.86 |
| B7 | 0.6 |
| B8 | 1.66 |
| B9 | 0.34 |
| B2 | 1.12 |
| B6 | 0.38 |
| B10 | 0.42 |

Target: T4, VWF-FP R768C mutant (albumin-fused von …)
Assay: covalent-FVIII ELISA over FVIII activity assay

| Binder | ratio covalent FVIII/Total FVIII activity |
| --- | --- |
| B3 | 1.03 |
| B7 | 1.5 |
| B9 | 2.11 |
| B5 | 1.44 |
| B6 | 1.05 |
| B10 | 4.07 |

Target: T5, VWF-FP E1015C mutant (albumin-fused von …)
Assay: covalent-FVIII ELISA over FVIII activity assay

| Binder | ratio covalent FVIII/Total FVIII activity |
| --- | --- |
| B3 | 1.21 |

Target: T1, VWF-FP P1079C mutant (albumin-fused von …)
Assay: ELISA of co-expression supernatant: anti-VWF capture, 350 mM CaCl2 wash, anti-FVIII detection
Experimental: (§1) Cell culture supernatant samples (10 ml) from transient transfections were concentrated with Amicon Ultracell-30K (Millipore UFC903024; 3000 g centrifugation). FVIII covalently attached to VWF-FP in culture supernatant (concentrates) was determined by a standard ELISA. Briefly, microplates were incubated with 100 μL per well of the capture antibody (rabbit anti human VWF-IgG, Dako A0082 [Dako, Hamburg, Germany], diluted 1:2000 in buffer A [Sigma C3041, Sigma-Aldrich, Munich, Germany]) overnight at ambient temperature. After washing plates three times with buffer B (Sigma T9039), each well was incubated with 200 μL buffer C (Sigma T6789) for 1.5 hours at ambient temperature (blocking). After another three wash steps with buffer B, serial dilutions of the test sample in buffer B as well as serial dilutions of a control preparation of covalently linked FVIII-VWF-FP, (2.0-0.03 arbitrary U/ml in buffer B (we call these “arbitrary units” as they may not correspond to the standard FVIII units as determined using Standard Human Plasma); volumes per well: 100 μL) were incubated for 1.5 hours at ambient temperature. After three wash steps with buffer B, 200 μL of 350 mM CaCl₂ were added to each well and incubated for 1 hour at ambient temperature. CaCl₂ was removed (without washing) and additional 200 μl were added to each well and incubated further for 1 hour. After three wash steps with buffer B 100 μL of a 1:2 dilution in buffer B of the detection antibody (Detecting Antibody for FVIII:C, peroxidase labelled, Cedarlane CL20035K-D) were added to each well and incubated for 1 hour at ambient temperature. After three wash steps with buffer B, 100 μL of substrate solution (OUVF, Siemens Healthcare Diagnostics) were added per well and incubated for 15 minutes at ambient temperature in the dark. Addition of 100 μL undiluted stop dilution (OSFA, Siemens Healthcare Diagnostics) prepared the samples for reading in a suitable microplate reader at 450 nm wavelength. Concentrations of the test samples were then calculated using the standard curve with the control preparation.

| Binder | covalent FVIII [amU/ml] |
| --- | --- |
| B1 | 409 |
| B2 | 398 |

Target: T2, VWF-FP N1134C mutant (albumin-fused von …)
Assay: as above
Experimental: as §1

| Binder | covalent FVIII [amU/ml] |
| --- | --- |
| B1 | 424 |
| B3 | 693 |
| B4 | 435 |
| B5 | 843 |
| B6 | 741 |

Target: T3, VWF-FP K1116C mutant (albumin-fused von …)
Assay: as above
Experimental: as §1

| Binder | covalent FVIII [amU/ml] |
| --- | --- |
| B3 | 2740 |
| B7 | 1440 |
| B8 | 1080 |
| B9 | 488 |
| B2 | 992 |
| B6 | 1150 |
| B10 | 1350 |

Target: T4, VWF-FP R768C mutant (albumin-fused von …)
Assay: as above
Experimental: as §1

| Binder | covalent FVIII [amU/ml] |
| --- | --- |
| B3 | 506 |
| B7 | 87 |
| B9 | 328 |
| B5 | 390 |
| B6 | 491 |
| B10 | 2210 |

Target: T5, VWF-FP E1015C mutant (albumin-fused von …)
Assay: as above
Experimental: as §1

| Binder | covalent FVIII [amU/ml] |
| --- | --- |
| B3 | 1640 |
